What all share (experiment): EMSA; 5 mM Mg2+, Ca2+; EMSA: PBS with Ca2+ and Mg2+, 5 mM MgCl2, 1% NP40, room temperature 45 min, 4.6 pmol ESTA-1 with 0-19 pmol selectin in 10.5 ul, 6% gel run at 4 C; cell binding: 20 min at 37 C; pH not stated
On the technique in general: Mobility shift assays separate free from complexed probe on a gel.

The target of data set [1] is T1, E-selectin extracellular domain (human, UniProt P16581 22-556).
T1 sequence: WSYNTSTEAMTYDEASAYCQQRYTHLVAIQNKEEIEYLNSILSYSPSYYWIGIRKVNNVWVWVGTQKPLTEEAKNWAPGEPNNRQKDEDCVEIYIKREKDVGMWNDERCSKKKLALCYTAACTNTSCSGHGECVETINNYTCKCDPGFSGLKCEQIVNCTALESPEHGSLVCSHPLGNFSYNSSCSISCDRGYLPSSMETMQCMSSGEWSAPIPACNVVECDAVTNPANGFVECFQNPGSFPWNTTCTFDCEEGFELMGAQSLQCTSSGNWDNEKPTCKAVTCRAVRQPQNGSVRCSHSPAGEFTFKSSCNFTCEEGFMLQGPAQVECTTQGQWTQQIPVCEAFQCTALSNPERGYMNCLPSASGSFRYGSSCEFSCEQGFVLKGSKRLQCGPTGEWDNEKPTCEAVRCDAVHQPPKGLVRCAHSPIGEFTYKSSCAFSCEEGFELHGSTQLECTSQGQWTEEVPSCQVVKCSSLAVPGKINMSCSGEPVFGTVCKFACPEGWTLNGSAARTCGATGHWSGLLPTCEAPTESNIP
The following applies: protein: commercial; label: none in EMSA (SYBR Gold stain); two hairpin loops (MFOLD).

The target of another data set is T2, L-selectin (UniProt P14151 39-332).
T2 sequence: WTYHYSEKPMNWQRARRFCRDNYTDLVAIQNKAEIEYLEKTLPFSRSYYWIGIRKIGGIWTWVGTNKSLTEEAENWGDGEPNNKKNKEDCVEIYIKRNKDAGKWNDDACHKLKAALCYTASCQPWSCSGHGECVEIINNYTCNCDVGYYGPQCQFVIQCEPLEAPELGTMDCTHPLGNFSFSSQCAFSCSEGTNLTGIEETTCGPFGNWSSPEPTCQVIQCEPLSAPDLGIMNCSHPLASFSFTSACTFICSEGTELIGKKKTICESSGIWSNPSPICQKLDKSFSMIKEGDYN
The following applies: protein: recombinant; label: none in EMSA (SYBR Gold stain); two hairpin loops (MFOLD).

The target in another data set is P-selectin (UniProt P16109 42-771). The following applies: protein: recombinant; label: none in EMSA (SYBR Gold stain); two hairpin loops (MFOLD).
Chain of P-selectin (P16109 42-771): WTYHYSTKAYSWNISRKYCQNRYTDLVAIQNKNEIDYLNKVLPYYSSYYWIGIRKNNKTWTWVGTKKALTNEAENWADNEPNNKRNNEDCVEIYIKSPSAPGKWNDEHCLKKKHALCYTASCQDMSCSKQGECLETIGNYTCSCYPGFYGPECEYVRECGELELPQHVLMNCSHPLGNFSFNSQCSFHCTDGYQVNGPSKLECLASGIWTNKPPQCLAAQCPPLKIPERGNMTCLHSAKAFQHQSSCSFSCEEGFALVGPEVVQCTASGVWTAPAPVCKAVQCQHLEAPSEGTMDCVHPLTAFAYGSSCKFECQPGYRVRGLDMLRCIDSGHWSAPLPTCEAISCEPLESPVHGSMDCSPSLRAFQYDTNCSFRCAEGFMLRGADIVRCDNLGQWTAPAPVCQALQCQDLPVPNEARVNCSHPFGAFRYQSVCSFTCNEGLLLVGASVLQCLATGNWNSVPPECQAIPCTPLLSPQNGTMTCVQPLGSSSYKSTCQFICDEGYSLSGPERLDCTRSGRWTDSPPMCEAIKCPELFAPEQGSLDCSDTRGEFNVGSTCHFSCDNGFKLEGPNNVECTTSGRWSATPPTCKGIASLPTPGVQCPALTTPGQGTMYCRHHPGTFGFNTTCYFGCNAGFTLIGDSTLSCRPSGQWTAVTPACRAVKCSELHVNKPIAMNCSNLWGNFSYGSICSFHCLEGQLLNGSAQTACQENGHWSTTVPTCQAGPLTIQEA

Experimental findings from article PMC2948018, “Identification of Thioaptamer Ligand against E-Selectin: Potential Application for Inflamed Vasculature Targeting” are described below.

B1: ESTA-1 (TA-1) (XNA)
DNA: CGCTCGGATCGATAAGCTTCGATCCCACTCTCCCGTTCACTTCTCCTCACGTCACGGATCCTCTAGAGCACTG
modifications: monothiophosphate (Rp) at all dA except 5' primer region
A word on the Kd: it is the equilibrium constant for the complex coming apart. As for B1, the Kd in data set [1] is 0.047 µM; in the data set with P-selectin, around 13 µM. Besides, the binding result in the data set with L-selectin was “no binding”.
